The source of these data is the nanobody polyreactivity screen of Harvey et al. (2022).

This data set in a line: yeast display, Sf9 membrane polyspecificity reagent, FACS + sequencing; frameworks hold sequencing errors. The gist of the method: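 Galactose-induced (36–48 hours) yeast carrying a synthetic nanobody display library were exposed to 10% biotinylated, detergent-solubilized Sf9 membrane reagent at 4 °C for 1 hour. FACS followed streptavidin microbead enrichment, using low and high (top ~1%) gates for expression (anti-HA) and reagent binding (streptavidin). Colony PCR, MiSeq 2 × 250 sequencing and CDR-length filtering followed. Labels for polyreactivity reflect the gate of origin.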
In the case of “QVQLVESGGGLVQAGGSLRLSCAASGIIFIYYTMGWYRQAPGTDRELVAVITTSGDGTYYADSVKGRFTISRDNAKNTGYLQMNSLKPEDTSVYYCAASYSTWVSTRNDYWGQGTQVTVSS”, the “polyreactivity (PSR sort gate)” value is recorded as “low polyreactivity”.
For “QVQLVESGGGLVQAGGSLRLSCAASGIIFKDYAMGWYRQAPGKERELVAAISRGGSTYYADSVKGRFTISRDNAKNTVYLQMNSLKPEDTAVYYCAAAYTAPYYRFGYWGQGTQVTVSS”, the “polyreactivity (PSR sort gate)” value is “high polyreactivity”.
Regarding “QVQLVESGGGLVQAGGSLRLSCAASGIIFKRYTMGWYRQAPGKERELVAAITNRGGTYYADSVKGRFTISRDNAKNTVYLQMNSLKPEDTAVYYCAARYYWIDFKFGGPRDYWGQGTQVTVSS”, the “polyreactivity (PSR sort gate)” value is listed as “high polyreactivity”.
The value for “QVQLVESGGGLVQAGGSLRLSCAASGIIFLDNARGWYRQAPGKERELVAAYADSVKGRFTISRDNAKNTVYLQMNSLKPEDTAVYYCNAGWFRNYGFSIVTYDYWGHGTQVTVSS” was “low polyreactivity”.
“QVQLVESGGGLVQAGGSLRLSCAASGIIFLHYAMGWYRQAPGKEREFVAAISWSGGSTHYADSVKGRFTISRDNAKNTVYLQMNSLKPEDTAVYYCAAYTFYSYDYWGQGTQVTVSS”: the “polyreactivity (PSR sort gate)” value is recorded as “high polyreactivity”.
With “QVQLVESGGGLVQAGGSLRLSCAASGIIFNTYAMGWYRQAPGKERELVAAISSSGGRTYYADSVKGRFTISRDHAKNTVYLQMNSLTPEDTAVYNCNKVQNRGPRTNARKFDYWGQGTQVTVSS”, the “polyreactivity (PSR sort gate)” value was “high polyreactivity”.
Take “QVQLVESGGGLVQAGGSLRLSCAASGIIFPFYAMGWYRQAPGKERELVAAITSGDDTYYADSVKGRFTISRDNAKNTVYLQMNSLKPEDTAVYYCNKRLYIAGYWPQLYYIMDYWGQGTQVTVSS”: the “polyreactivity (PSR sort gate)” value is given as “low polyreactivity”.
As to “QVQLVESGGGLVQAGGSLRLSCAASGIIFPFYAMGWYRQAPGKERELVAAITSGDDTYYADSVKGRFTISRDNAKNTVYLQMNSLKPEVTAVYYCNKRLYIAGYWPQLYYIMDYWGQGTQVTVSS”, the “polyreactivity (PSR sort gate)” value is recorded as “low polyreactivity”.
The same measure for “QVQLVESGGGLVQAGGSLRLSCAASGIIFPINAMGWYRPAPGKERELVAGIDESGGGTYYADSVKGRFTISRDNAKNTLYLQMNSLKPEDTAVYYCAAVTLAPRAYDYWGQGTEVTVSS”: “low polyreactivity”.
For “QVQLVESGGGLVQAGGSLRLSCAASGIIFPVYDMGWYRQAPGKERELVASITDSGGSTSYADSVKGRFTISRDNAKNTVYLQMNSLKPEDTAVYYCAVTDSDTNYYGYLSYDYWGQGTQVTVSS”, the “polyreactivity (PSR sort gate)” value is “low polyreactivity”.
“QVQLVESGGGLVQAGGSLRLSCAASGIIFPYSAMGWYRQAPGKERELVAAITSIDASTYYADSVKRRFTISRDNAKNTVYLHMNSLKPEDTAVYYCNATVFNLVLEYNYWGQGTQVTVSS”: the “polyreactivity (PSR sort gate)” value is “low polyreactivity”.
Turning to “QVQLVESGGGLVQAGGSLRLSCAASGIIFQKYAMGWYRQEPGKERELVDAITRRGGSTYYADSVKGRFTISRDNAKNTVYLQMNSLKPEDTAVYYCAVQLRRHVDMDYWGQGTQVTVSS”, the “polyreactivity (PSR sort gate)” value was “high polyreactivity”.
As to “QVQLVESGGGLVQAGGSLRLSCAASGIIFQNYDMGWYRQAPGKARELVAAITGSGGSTYYADSVKGRFTISRDNAKNTVYLQMNSLKPEDTAVYYCNAVWEYYGKSDYWGQGTQVTVSS”, the “polyreactivity (PSR sort gate)” value is “low polyreactivity”.
The value for “QVQLVESGGGLVQAGGSLRLSCAASGIIFQQYAMGWYRQAPGKERELVAAITYSGDGTYYADSVKGRFTISRDNAKNTVYLQMNSLKPEDTAVYYCAADVGYFKSDYWGQGTQVTVSS” was “low polyreactivity”; that for “QVQLVESGGGLVQAGGSLRLSCAASGIIFQRNDMGWYRQAPGKERELVANIRDGGITYADSVKGRFTISRDNAKNTVYLQMNRLKPEDTAVYYCARDDTSPGYGDQSSNAAYYYWGQGTQVTVSS” was “low polyreactivity”.
In the case of “QVQLVESGGGLVQAGGSLRLSCAASGIIFQSYTMGWYRQAPGKERELVAAIDSGGSTYYADSVKGRFTISRDNAKNTVYLQMNSLKPEDTAVYYCAAEPDTYWYTYDYWGQGTQVTVSS”, the “polyreactivity (PSR sort gate)” value is reported as “low polyreactivity”.
With “QVQLVESGGGLVQAGGSLRLSCAASGIIFRANAMGWYRQAPGKERELVAAISRRGGSTYYADSVKGRFTISRDNAKNTVFLQMNSLKPEDTAVYYCAADGKNYPVGYDYWGQGTQVTVSS”, the “polyreactivity (PSR sort gate)” value is “high polyreactivity”.
Regarding “QVQLVESGGGLVQAGGSLRLSCAASGIIFRDNDMGWYRQAPGKERELVASISDSGGSTYYADSVKGRFTISRDNAKNTVYLQMNSLKPEDTAVYYCAAPYLSLYWYDYWGQGTQVTVSS”, the “polyreactivity (PSR sort gate)” value was “low polyreactivity”.
As to “QVQLVESGGGLVQAGGSLRLSCAASGIIFREYAMGWYRQAPGKERELVAAISKSGGSTYYADSVKGRFTISRDNAKNTVYLQMNSLKPEDTAVYYCAARLGTFSIPMYYWGQGTQVTVSS”, the “polyreactivity (PSR sort gate)” value was “high polyreactivity”.
Take “QVQLVESGGGLVQAGGSLRLSCAASGIIFRGYAMGRNRHAPGKERELVARISTSGGSTYYADSVKGRFTISRDNAKNTVYLQMNSLKPEDTAVYYCAATRSFLTSWYYRSTSTRDYWGQGTQVTVSS”: the “polyreactivity (PSR sort gate)” value was “high polyreactivity”.
Consider “QVQLVESGGGLVQAGGSLRLSCAASGIIFRGYAMGWDRQAPGKERELVARISITGGRTYYADSVKGRFTLSRDNAKNTVYLQMNSLKPEDTAVYYCAAGKYVRTVRYDYWGQGPQVTVSS”, for which the “polyreactivity (PSR sort gate)” value is “high polyreactivity”.
As to “QVQLVESGGGLVQAGGSLRLSCAASGIIFRGYAMGWYRQAPGKERELVAAITYSGDSTYYADSVKGRFTSSRDNAKNTVYLQMNSLKPEESAVYYCNADVVDGGLAYDYWGQGTQVSVSS”, the “polyreactivity (PSR sort gate)” value is recorded as “low polyreactivity”.
The value for “QVQLVESGGGLVQAGGSLRLSCAASGIIFRKYAMGWYRQAPGKERELVAAISWRGGSTYYADSVKGRFTISRDNAKNTVYLQMNSLKPEDTAVYYCAAVAQITGYDYWGQGTQVTVSS” was “high polyreactivity”; that for “QVQLVESGGGLVQAGGSLRLSCAASGIIFRLNAMGWYRQAPGKERELVAAIRRRGGSTYYADSVKGRFTISRDKAKNTVYLQMNSLKPEDTAVYYCAKDPHGSDFGYWGQGTQVTVSS” was “low polyreactivity”.
Consider “QVQLVESGGGLVQAGGSLRLSCAASGIIFRLYAMGWYRQAPGKERELVAAISYRGGSTYYADSVKGRFTISRDNAKNTVYLQMNSLKPEDTAVYYCAARNPRYSFYYWGQGTQVTVSS”, for which the “polyreactivity (PSR sort gate)” value is on record as “high polyreactivity”.
On to “QVQLVESGGGLVQAGGSLRLSCAASGIIFRNNAMGWYRQAPGKEREFVARISKRGGSTYYADSVKGRFTISRDNAKNTVYLQMNSLKPEDTAVYYCAKGYGSGSYLYDYWGQGTQVTVSS”, for which the “polyreactivity (PSR sort gate)” value is reported as “high polyreactivity”.
On to “QVQLVESGGGLVQAGGSLRLSCAASGIIFRNYAMGWYRQAPGKERELVATITGDGGSTYYADSVKGRFTISRDNAKNTVYLQMNSLKPEDTAVDYCAADRPYAGRYWKGYHSALYDYWGQGTQVTVSS”, for which the “polyreactivity (PSR sort gate)” value is “low polyreactivity”.
As to “QVQLVESGGGLVQAGGSLRLSCAASGIIFRPYTMGWYRQAPGKERELVAAISQSGGRTYYADSVKGRFTISRDNAKNTVYLQMNSLKPEDTAVYYCNVLGSYSYYGGNDLWYYYWGQGTQVTVSS”, the “polyreactivity (PSR sort gate)” value is “high polyreactivity”.
Consider “QVQLVESGGGLVQAGGSLRLSCAASGIIFRRYAMGWSRQAPGKERELVAAITHRGSTYYADSVKGRFTISRDNAKNTVYLQMNSLKPEDTAVYYCAADGFTRWGRYDYWGQGTQVTVSS”, for which the “polyreactivity (PSR sort gate)” value is reported as “high polyreactivity”.
The same measure for “QVQLVESGGGLVQAGGSLRLSCAASGIIFRRYAMGWYRQAPGKEREFVAAIRYTGGGTYYADSVKGRFTISRDNAKNTVYFQMNSLKPEDTAVYYCAASPWSRGSRWRPFDYWGQGTQVTVSS”: “high polyreactivity”.
Turning to “QVQLVESGGGLVQAGGSLRLSCAASGIIFRSYAMGWYRQAPGKERELVAAITGGGTTNYADSVKGRFTISRDNAKNTVYLQMNSLKPEDTAVYYCNAGLDWFWFNEMDYWGQGTQVTGSS”, the “polyreactivity (PSR sort gate)” value is “low polyreactivity”.
Take “QVQLVESGGGLVQAGGSLRLSCAASGIIFRTNAMGWYRQAPGKEREFVAAISAGGTRTYYADSVKGRFTISRDNAKNTVYLQMNSLKPEDTAVYYCAAASGYDYWGQGTQVTVSS”: the “polyreactivity (PSR sort gate)” value is given as “high polyreactivity”.
Consider “QVQLVESGGGLVQAGGSLRLSCAASGIIFRVYAMGWYRQAPGKERELVASITDRGTRTYYADSVKGRFTISRDNAKNTVYLQMNSLKPEDTAVYYCADEPNYLYWGFFSVGYDYWGQGTQVTVSS”, for which the “polyreactivity (PSR sort gate)” value is “high polyreactivity”.
Regarding “QVQLVESGGGLVQAGGSLRLSCAASGIIFRVYAMGWYRQAPGKERELVATITWSGGSTFYADSVKGRFTISRDNAKNTVYLQMNSLKPEDTAVYYCAARFLWSVFGRKGGYWGQGTQVTVSS”, the “polyreactivity (PSR sort gate)” value is reported as “low polyreactivity”.
As to “QVQLVESGGGLVQAGGSLRLSCAASGIIFRWYAMGWYRQAPGKERELVAAITRSGGSTYYADSVKGRFTISRDNAKNTVYLQMNSLKPEDTAVYYCAAEYYAPSYKFDYWGQGTQVTVSS”, the “polyreactivity (PSR sort gate)” value is “high polyreactivity”.
The value for “QVQLVESGGGLVQAGGSLRLSCAASGIIFRWYAMGWYRQAPGKERELVAGITSTTGTTYYADSVKGRFTISRDNAKNTVYLQMNSLKPEDTAVYYCAADYYCYTTAGVVDSFEYWGQGTQVTVSS” was “low polyreactivity”.
Consider “QVQLVESGGGLVQAGGSLRLSCAASGIIFRWYGMGWYRQAPGKERELVATITSGGRTNYADSVKGRFTISRDNAKNTGYLQMHSLKPEDTAVYYCAAARLFAMDYWGQGTQVTVSS”, for which the “polyreactivity (PSR sort gate)” value was “low polyreactivity”.
The same measure for “QVQLVESGGGLVQAGGSLRLSCAASGIIFRYNAMGLYRQAPGKERELVAAISWSGGYTYYADYVKGRFTISRDNAKNTVYFQMNSLKPEDTAVYYFNAVSLSRWGGYWGQGTQVTVSS”: “high polyreactivity”.
As for “QVQLVESGGGLVQAGGSLRLSCAASGIIFRYYAMGWYIQAPGKERELVARITSGARTTYADSVKGRFTISRDNAKNTVYLQMNSLKPEDSAVYYCNAVRRYGLEYNYWGQGTQVTVSS”, the “polyreactivity (PSR sort gate)” value is listed as “high polyreactivity”.
The same measure for “QVQLVESGGGLVQAGGSLRLSCAASGIIFRYYAMGWYRQAPGKEREFVADISASDGSTYYADSVKGRFTISRDNAKNTVYLQMNSQKPEDTAVSYCNARKYWKYGSYQYYWGQGTEVTVSS”: “high polyreactivity”; for “QVQLVESGGGLVQAGGSLRLSCAASGIIFRYYAMGWYRQAPGKERELVAAISVSGGSTYDADSVKGRFTISRDNAKNTVYLQMNSLKPEDTAVYYCAARTRDFGYWGQGTQVTVSS”: “high polyreactivity”.
